Experimental data published in patent US6979673 (University of Pennsylvania, dated 2005).

B1: myc-tagged PRL (recombinant human prolactin from Drosophila S2 cells) (ligand, UniProt P01236 29-227, looked up, not shown: small tags and cut ends)
chain: LPICPGGAARCQVTLRDLFDRAVVLSHYIHNLSSEMFSEFDKRYTHGRGFITKAINSCHTSSLATPEDKEQAQQMNQKDFLSLIVSILRSWNEPLYHLVTEVRGMQEAPEAILSKAVEIEEQTKRLLEGMELIVSQVHPETKENEIYPVWSGLPSLQMADEESRLSAYYNLLHCLRRDSHKIDNYLKLLKCRIIHNNNC
notes: mature

Assays:
[1] = target: growth hormone (GH) (human, UniProt P01241 27-217); assay: cell-based or functional assay
[2] = target: T1, PRL (human prolactin, untagged or form not specified: serum PRL; PRL added to cell cultures) (human, UniProt P01236 29-227); assay: cell-based or functional assay
T1 sequence (looked up): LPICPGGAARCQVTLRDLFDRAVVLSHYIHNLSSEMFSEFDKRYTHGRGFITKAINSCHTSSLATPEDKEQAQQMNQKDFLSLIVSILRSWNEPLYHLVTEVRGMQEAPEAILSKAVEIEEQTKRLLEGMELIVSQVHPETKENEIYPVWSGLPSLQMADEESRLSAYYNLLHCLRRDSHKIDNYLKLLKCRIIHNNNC

[3] = target: B1; assay: co-immunoprecipitation of admixed purified proteins, with cyclosporin A against without
[4] = target: recombinant form of cyclophilin family member CypA (UniProt P62937 1-165, limits assumed); assay: co-immunoprecipitation of admixed recombinant proteins
recombinant form of cyclophilin family member CypA, sequence (P62937 whole entry): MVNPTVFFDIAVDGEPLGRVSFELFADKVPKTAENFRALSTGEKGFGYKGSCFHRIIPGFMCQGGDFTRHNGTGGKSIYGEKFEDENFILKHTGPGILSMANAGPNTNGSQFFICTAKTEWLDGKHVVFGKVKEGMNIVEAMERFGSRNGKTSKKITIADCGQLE

growth hormone (GH), sequence (P01241 27-217 limits assumed): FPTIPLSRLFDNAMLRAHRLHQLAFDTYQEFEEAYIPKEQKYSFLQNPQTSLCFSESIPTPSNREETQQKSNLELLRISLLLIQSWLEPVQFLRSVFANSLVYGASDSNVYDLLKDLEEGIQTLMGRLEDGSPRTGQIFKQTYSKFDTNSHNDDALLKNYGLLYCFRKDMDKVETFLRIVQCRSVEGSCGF

Binder	GH-driven proliferation [1]	PRL-driven growth of Nb2 cells (3H-thymidine) [2]	fold enhancement of the interaction on addition of CsA [3]	binding result [4]
His-tagged CypB (cyclophilin B, recombinant, V5/His-tagged, from Drosophila S2 cells) (enzyme, also called wild-type CypB; sepharose-conjugated, recombinant CypB; not shown: C-terminal bifunctional V5/His-tag of vector pAc5/V5-HisA) not shown	40 fold	≤ 8 fold	~10 fold	
B1				no binding
